Experimental data reported in patent US7208311B2, “Catalytic domain of ADAM33 and methods of use thereof” (Schering Corporation, priority 2002, dated 2007).
Where a chain is given by its changes, count along the chain named. Names and notes keep the numbering of the source. One block for each molecule: values may come before it.

Assays:
[1] = target: T1, ADAM33 (Homo sapiens, UniProt Q9BZ11); assay: MCF 12-mer peptide proteolysis assay (HPLC); assay type: biochemical; settings: for ADAM33 activity in the presence of inhibitor: 1 mM inhibitor
T1 construct: made in house; host or cells: Drosophila melanogaster S2 cells
T1 sequence (Q9BZ11 204-409): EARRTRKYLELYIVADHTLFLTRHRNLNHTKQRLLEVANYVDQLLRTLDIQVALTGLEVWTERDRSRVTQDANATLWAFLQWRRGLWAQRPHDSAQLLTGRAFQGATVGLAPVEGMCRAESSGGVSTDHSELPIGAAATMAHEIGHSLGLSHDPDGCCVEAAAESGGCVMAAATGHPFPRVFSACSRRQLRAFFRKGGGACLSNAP
Description: A 12-mer peptide (i.e. Ac-LPPVAASSLNRD-NH2; SEQ ID NO: 48), derived from human mast-cell growth factor (accession number NP-038626) was synthesized as a substrate for ADAM33. Reactions were initiated by addition of 200 nM enzyme to appropriate amounts of substrate in assay buffer (25 mM HEPES, pH 7.5, 0.5 M NaCl, 0.1% n-octyl-β-D-glucoside), incubated at 22° C. for 2 h and subsequently quenched with 1% TFA. When inhibitors were evaluated, the enzyme and inhibitors were preincubated at 22° C. for 30 min prior to initiation of the assays. Substrate and products were separated by HPLC using a C-8 reverse phase column (Zobrax 3.5 μm, 4.6 mmD/5 cmL, Agilent, Palo Alto, Calif., 0.1% TFA acetonitrile/H2O). Elution was monitored at 214 nm, and peaks identified by mass spectroscopy. Initial rates of proteolysis were determined using reactions in which less than 10% of the substrate was consumed. kcat/Km values were calculated assuming the enzymes were 100% active.
Production of ADAM33 and mutants thereof were produced essentially as described in Example 1. Proteolytic assays and methods for determining catalytic rates are essentially as described in Examples 2 and 3.

[2] = target: T1, ADAM33; assay: HPLC inhibition assay, ADAM33cat with KL-1 peptide substrate; assay type: biochemical; settings: ADAM33cat 80 nM, KL-1 peptide 100 μM, 2 h RT
Description: The inhibition dissociation constants (Ki) for inhibitors were determined as follows: an HPLC assay was performed in the presence or absence of inhibitors for 2 h at RT using ADAM33cat (80 nM) and KL-1 peptide substrate (100 μM). For testing tissue inhibitor of metalloproteinases (TIMPs), ADAM33 and human TIMPs were pre-incubated for 1 h at RT. […] Initial velocities were calculated by dividing cleaved product over reaction time. The initial velocities were plotted as a function of inhibitor concentration. For tight binding inhibitors (IK682, TIMP-3), the apparent inhibitor dissociation constants (Ki app values) were calculated by fitting the curve to the following modified Morrison's equation: vi=vo{[(Eo−Io−Ki^app)^2+4 Ki^appEo]^1/2+(Eo−IoKI^app)}/2Eo where Ki^app=Ki(1+S/Km), vo is the uninhibited initial velocity, vi is the initial velocity in the presence of inhibitor at any given inhibitor concentration Io, and Eo is initial enzyme concentration. When the substrate concentration S<<Km, Ki^app is approximately equal to Ki.

[3] = target: T1, ADAM33; assay: HPLC peptide substrate cleavage assay with ADAM33; assay type: biochemical; settings: for cleavage site of peptide: identified by MALDI-TOF MS; for cleavage of peptide by ADAM33: peptide 50 μM, ADAM33 0.1–0.5 μM, 2 h RT
Description: (§1) The peptide substrate (50 μM) was incubated with or without ADAM33 (0.1–0.5 μM) in assay buffer (20 mM HEPES, pH 7.5, 0.5 M NaCl, 0.2 mg/ml bovine serum albumin (BSA)) for 2 hours (h) at room temperature (RT) in the presence or absence of various inhibitors [5 mM 1, 10-phenanthroline, or a protease inhibitor cocktail (2 μg/ml leupeptin, 0.4 μM benzamidine, 10 μg/ml soybean trypsin inhibitor and 0.5 mM iodoacetamide)]. The reaction was stopped by adding 10% trifluoroacetic acid (TFA) to a final concentration of 1% and samples were analyzed on Agilent HPLC model 1100 with C8 column. Solvents were: A, 0.1% TFA in water; B, 0.09% TFA in acetonitrile. A linear gradient from 2 to 42% B was run over 7 min at 1.5 ml/min and the eluate was monitored at 214 nm. The percentage of peptide cleavage was calculated using the peak area of the cleaved products divided by the sum of the peak areas of both the products and the remaining substrate. The cleavage sites of the peptide were identified by matrix-assisted laser-desorption/ionization time-of-flight (MALDI-TOF) mass spectrometry.
(§2) Specificity constants of peptide substrates, APP and KL-1, were obtained by using the HPLC assay described above. In brief, ADAM33cat (80 nM) was incubated with peptide substrate (30–2000 μM) in assay buffer for 10–60 min at RT. Reactions were timed to allow less than 15% turnover of the substrate. The initial cleavage velocities of the peptides were obtained by plotting cleaved product versus reaction time. The specificity constants, kcat/Km, were determined based on best fit of the data with the Michaelis-Menten equation when substrate concentration S<<Km.

[4] = substrate: CC(C)C[C@H](NC(=O)[C@H](CO)NC(=O)[C@H](CO)NC(=O)[C@H](C)NC(=O)[C@H](C)NC(=O)[C@@H](NC(=O)[C@@H]1CCCN1C(=O)[C@@H]1CCCN1)C(C)C)C(=O)N[C@@H](CCCNC(=N)N)C(=O)N[C@@H](CC(N)=O)C(=O)O; assay: HPLC peptide substrate cleavage assay with ADAM33; assay type: biochemical, human; settings: other: ADAM33cat 80 nM, turnover <15%; pH 7.5
Description: as §1, §2

[5] = substrate: CC(C)C[C@H](NC(=O)[C@H](CCCCN)NC(=O)[C@H](CCC(N)=O)NC(=O)[C@H](Cc1c[nH]cn1)NC(=O)[C@H](Cc1c[nH]cn1)NC(=O)[C@@H](NC(=O)[C@H](CCC(=O)O)NC(=O)[C@@H](N)Cc1ccc(O)cc1)C(C)C)C(=O)N[C@H](C(=O)N[C@@H](Cc1ccccc1)C(=O)O)C(C)C; assay: HPLC peptide substrate cleavage assay with ADAM33; assay type: biochemical, human; settings: other: ADAM33cat 80 nM, turnover <15%; pH 7.5
Description: as §1, §2

[6] = Thermal denaturation monitored by circular dichroism (220 nm); assay type: physicochemical
Description: The effect of CaCl2 on the stability of the ADAM33 N231Q catalytic domain as determined by thermal denaturation: The effect of the concentration of CaCl2 on the retention of the secondary structure of the ADAM33 N231 Q catalytic domain was monitored by circular dichroism (λ220 nm) as a function of temperature. A parallel study was performed replacing the CaCl2 with NaCl to control for the effect of the corresponding increase in ionic strength. The ADAM33 N231Q catalytic domain was purified as described above and then diluted to 0.2 mg/ml. The sample was then dialyzed against 25 mM Hepes, pH 7.5, 5% glycerol overnight. The temperature dependent protein denaturation was performed using a JASCO 810 spectropolarimeter under the following conditions: • Protein concentration: 0.2 mg/ml (based on a BioRad Protein Assay) • Cell length: 0.1 cm • Monitor wavelength: 220 nm • Temperature slope: 2° C./min • Measurement range: 20–80° C.

Molecule: O=C(O)CN(CCN(CC(=O)O)CC(=O)O)CC(=O)O [EDTA]
- ADAM33 activity in the presence of inhibitor [1]: completely abolished

Molecule: CC(C)CC(CC(=O)NO)C(=O)N[C@H](C(=O)N[C@@H](C)C(=O)NCCN)C(C)(C)C (mixture of isomers) [Immunex compound 1, N-{DL-[2-(hydroxyamino-carbonyl)methyl]4-methylpentanoyl}-L-3-(tertbutyl)glycyl-L-alanine,2-aminoethylamide]
- Ki [2]: 2.85 ± 0.152 µM

Molecule: c1cnc2c(c1)ccc1cccnc12 [1,10-phenanthroline]
- ADAM33 activity in the presence of inhibitor [1]: completely abolished

B1: CAT domain: purified catalytic (protease) domain of human ADAM33 (protein)
chain: EARRTRKYLELYIVADHTLFLTRHRNLNHTKQRLLEVANYVDQLLRTLDIQVALTGLEVWTERDRSRVTQDANATLWAFLQWRRGLWAQRPHDSAQLLTGRAFQGATVGLAPVEGMCRAESSGGVSTDHSELPIGAAATMAHEIGHSLGLSHDPDGCCVEAAAESGGCVMAAATGHPFPRVFSACSRRQLRAFFRKGGGACLSNAPSGHHHHHH
- catalytic efficiency ([1]; MCF peptide substrate, estimated): 2.6±0.5)×10^2 M^−1 s^−1

B2: ADAM33 (Homo sapiens) (protein)
chain: T1 sequence (Q9BZ11 204-409)
notes: made in house; host or cells: Drosophila melanogaster S2 cells
- Km [4]: 3000 ± 100 µM
- kcat [4]: 0.7 ± 0.1 s⁻¹
- kcat/Km [4]: (2.6±0.5)×10^2 M^−1 s^−1
- Km [5]: 1000 ± 100 µM
- kcat [5]: 0.2 ± 0.1 s⁻¹
- kcat/Km [5]: (1.6±0.3)×10^2 M^−1 s^−1

B3: ADAM33 N231Q: modified ADAM33 catalytic domain N231Q, SEQ ID NO: 8 with C-terminal Ser-Gly His6 Tag (protein)
chain: T1 sequence (Q9BZ11 204-409) with N28Q
modifications: C-terminal Ser-Gly His6 tag; homo sapiens
- Denaturation Temp. ([6]; CaCl2 0 mM): 43.5 °C
- ΔDenaturation Temp. ([6]; CaCl2 0 mM): 0.0 °C
- Denaturation Temp. ([6]; CaCl2 0.003 mM): 50.6 °C
- ΔDenaturation Temp. ([6]; CaCl2 0.003 mM): 7.1 °C
- Denaturation Temp. ([6]; CaCl2 0.03 mM): 52.9 °C
- ΔDenaturation Temp. ([6]; CaCl2 0.03 mM): 9.4 °C
- Denaturation Temp. ([6]; CaCl2 0.3 mM): 53.9 °C
- ΔDenaturation Temp. ([6]; CaCl2 0.3 mM): 10.4 °C
- Denaturation Temp. ([6]; CaCl2 0.5 mM): 56.9 °C
- ΔDenaturation Temp. ([6]; CaCl2 0.5 mM): 13.4 °C
- Denaturation Temp. ([6]; CaCl2 1.0 mM): 57.9 °C
- ΔDenaturation Temp. ([6]; CaCl2 1.0 mM): 14.4 °C
- Denaturation Temp. ([6]; CaCl2 2.5 mM): 60.6 °C
- ΔDenaturation Temp. ([6]; CaCl2 2.5 mM): 17.1 °C
- Denaturation Temp. ([6]; CaCl2 5.0 mM): 61.5 °C
- ΔDenaturation Temp. ([6]; CaCl2 5.0 mM): 18.0 °C
- Denaturation Temp. ([6]; CaCl2 10.0 mM): 63.3 °C
- ΔDenaturation Temp. ([6]; CaCl2 10.0 mM): 19.8 °C
- Denaturation Temp. ([6]; CaCl2 25.0 mM): 64.6 °C
- ΔDenaturation Temp. ([6]; CaCl2 25.0 mM): 21.1 °C
- Denaturation Temp. ([6]; CaCl2 50.0 mM): 65.6 °C
- ΔDenaturation Temp. ([6]; CaCl2 50.0 mM): 22.1 °C
- Denaturation Temp. ([6]; CaCl2 100.0 mM): 65.2 °C
- ΔDenaturation Temp. ([6]; CaCl2 100.0 mM): 21.7 °C

Further lines, with some results ahead:

- cleavage site of peptide [3]: H*I
- cleavage of peptide by ADAM33 [3]: cleaved
Molecule: TRANCE: peptide substrate VGSQHIRAEK; SEQ ID NO: 44 (TRANCE Peptide)

- Ki [2]: 0.157 ± 0.038 µM
Molecule: CNC(=O)[C@@H](NC(=O)[C@H](CC(C)C)[C@H](O)C(=O)NO)C(C)(C)C [Marimastat, N4-[2,2-dimethyl-1(S)-[(methylamino)carbonyl]propyl]-N1,2(S)-dihydroxy-3(R)-(2-methylpropyl) butanediamide]

- Km ([1]; 200 nM enzyme, 10–500 μM substrate, room temperature): > 500 µM
Molecule: Ac-LPPVAASSLNRD-NH2 [MCF substrate peptide]
- cleavage site of MCF peptide by wild-type ADAM33 [1]: between the residues corresponding to Ala-190 and Ser-191

- cleavage site of peptide [3]: A*L
- cleavage of peptide by ADAM33 [3]: cleaved
Molecule: insulin B chain: peptide substrate HLVEALYLVC; SEQ ID NO: 45 (insulin B chain peptide)
